Changes are numbered by the printed parent chain.

The labels stand for the following.
T1: human TGFβ2 (human, UniProt P61812 303-414)
T1 construct: also called TGFβ2 homodimer
T1 sequence: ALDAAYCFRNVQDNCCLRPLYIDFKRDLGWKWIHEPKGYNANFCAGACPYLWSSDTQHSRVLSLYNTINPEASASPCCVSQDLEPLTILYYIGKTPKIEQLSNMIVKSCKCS

T2: human TGFβ3 (human, UniProt P10600 301-412)
T2 sequence: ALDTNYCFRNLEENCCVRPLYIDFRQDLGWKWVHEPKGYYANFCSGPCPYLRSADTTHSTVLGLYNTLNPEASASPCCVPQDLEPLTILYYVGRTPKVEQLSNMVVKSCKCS

B1: D56C (antibody, V domains shown)
VH: QVQLVQSGAEVKKPGSSVKVSCKASGYTFSSNVISWVRQAPGQGLEWMGGVIPIVCIANYAQRFKGRVTITADESTSTTYMELSSLRSEDTAVYYCASTLGLVLDAMDYWGQGTLVTVSS
VL: ETVLTQSPGTLSLSPGERATLSCRASQSLGSSYLAWYQQKPGQAPRLLIYGASSRAPGIPDRFSGSGSGTDFTLTISRLEPEDFAVYYCQQYADSPITFGQGTRLEIK
notes: GC1008 IgG4 variant
B2: E74H (antibody, V domains shown)
VH: B1 VH with C56D, E74H
VL: B1 VL
notes: GC1008 IgG4 variant
B3: E74A (antibody, V domains shown)
VH: B1 VH with C56D, E74A
VL: B1 VL
notes: GC1008 IgG4 variant
B4: S30H (antibody, V domains shown)
VH: B1 VH with S30H, C56D
VL: B1 VL
notes: GC1008 IgG4 variant
B5: E74D (antibody, V domains shown)
VH: B1 VH with C56D, E74D
VL: B1 VL
notes: GC1008 IgG4 variant
B6: E74S (antibody, V domains shown)
VH: B1 VH with C56D, E74S
VL: B1 VL
notes: GC1008 IgG4 variant
B7: E74G (antibody, V domains shown)
VH: B1 VH with C56D, E74G
VL: B1 VL
notes: GC1008 IgG4 variant
B8: S30A (antibody, V domains shown)
VH: B1 VH with S30A, C56D
VL: B1 VL
notes: GC1008 IgG4 variant
B9: D56F (antibody, V domains shown)
VH: B1 VH with C56F
VL: B1 VL
notes: GC1008 IgG4 variant
B10: E74Q (antibody, V domains shown)
VH: B1 VH with C56D, E74Q
VL: B1 VL
notes: GC1008 IgG4 variant
B11: E74Y (antibody, V domains shown)
VH: B1 VH with C56D, E74Y
VL: B1 VL
notes: GC1008 IgG4 variant
B12: E74T (antibody, V domains shown)
VH: B1 VH with C56D, E74T
VL: B1 VL
notes: GC1008 IgG4 variant
B13: D56E (antibody, V domains shown)
VH: B1 VH with C56E
VL: B1 VL
notes: GC1008 IgG4 variant
B14: E74P (antibody, V domains shown)
VH: B1 VH with C56D, E74P
VL: B1 VL
notes: GC1008 IgG4 variant
B15: I54S (antibody, V domains shown)
VH: B1 VH with I54S, C56D
VL: B1 VL
notes: GC1008 IgG4 variant
B16: V55A (antibody, V domains shown)
VH: B1 VH with V55A, C56D
VL: B1 VL
notes: GC1008 IgG4 variant
B17: V55W (antibody, V domains shown)
VH: B1 VH with V55W, C56D
VL: B1 VL
notes: GC1008 IgG4 variant
B18: V55M (antibody, V domains shown)
VH: B1 VH with V55M, C56D
VL: B1 VL
notes: GC1008 IgG4 variant
B19: I52P (antibody, V domains shown)
VH: B1 VH with I52P, C56D
VL: B1 VL
notes: GC1008 IgG4 variant
B20: I54Y (antibody, V domains shown)
VH: B1 VH with I54Y, C56D
VL: B1 VL
notes: GC1008 IgG4 variant
B21: I54G (antibody, V domains shown)
VH: B1 VH with I54G, C56D
VL: B1 VL
notes: GC1008 IgG4 variant
B22: V55L (antibody, V domains shown)
VH: B1 VH with V55L, C56D
VL: B1 VL
notes: GC1008 IgG4 variant
B23: D56P (antibody, V domains shown)
VH: B1 VH with C56P
VL: B1 VL
notes: GC1008 IgG4 variant
B24: V55I (antibody, V domains shown)
VH: B1 VH with V55I, C56D
VL: B1 VL
notes: GC1008 IgG4 variant
B25: I52F (antibody, V domains shown)
VH: B1 VH with I52F, C56D
VL: B1 VL
notes: GC1008 IgG4 variant
B26: S30K (antibody, V domains shown)
VH: B1 VH with S30K, C56D
VL: B1 VL
notes: GC1008 IgG4 variant
B27: I54Q (antibody, V domains shown)
VH: B1 VH with I54Q, C56D
VL: B1 VL
notes: GC1008 IgG4 variant
B28: I52T (antibody, V domains shown)
VH: B1 VH with I52T, C56D
VL: B1 VL
notes: GC1008 IgG4 variant

In the first assay the target is T3, human TGFβ1 (human, UniProt P01137 279-390).
T3 construct: also called TGFβ1 homodimer
T3 sequence (P01137 279-390 limits assumed): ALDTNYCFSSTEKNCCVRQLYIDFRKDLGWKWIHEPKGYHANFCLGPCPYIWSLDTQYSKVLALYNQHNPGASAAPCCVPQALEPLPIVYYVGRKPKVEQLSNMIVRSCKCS
Put plainly: Biacore off-rate vs wt GC1008, 50 nM. The source says:
(§1) Plasmids encoding either the GC1008 heavy chain or light chain were used as a template in PCR-based mutagenesis reactions. Mutations to the encoding DNA were made to create 155 single amino acid substitutions of the encoded heavy chain amino acid sequence and one single amino acid substitution of the encoded light chain amino acid sequence. A QuikChange® Lightning Site-Directed Mutagenesis kit (Agilent Technologies, Santa Clara Calif.) was used according to the manufacturer's instructions to create DNA mutations using a set of forward and reverse primers, either designed for a specific amino acid or for all 20 amino acids with a degenerate codon (NNK). After sequencing confirmation, identified mutant DNA was paired with a wild-type light or heavy chain DNA for transfection into an Expi293F™ host cell suspension (Life Techonologies Corp., Grand Island, N.Y.). At 4 days post-transfection, conditioned media (1 mL) was harvested and purified using a 1 mL Protein A PhyTip® column (PhyNexus, Inc., San Jose, Calif.) and a PureSpeed™ 12-channel pipette (Rainin Instrument LLC, Oakland, Calif.). Purified variant antibody samples were analyzed in duplicate on a Biacore® 3000 (GE Healthcare) at 50 nM concentrations, using the 100 RU level TGFβ1, 2, and 3 immobilized surfaces. The off-rate (kd) of the variants was divided by the kd of the wild-type control to obtain the fold change in the kd. […] A heat map was generated to visualize the results. Variants that completely lost affinity for TGFβ were shown in red without numbers.
Background: SPR reads the build-up and loss of mass on a sensor chip optically.
As for B1, the kd var/kd wt worked out at 1.1.

The molecule B2 yielded a kd var/kd wt of 0.9.

Molecule B3 registered a kd var/kd wt of 1.

The molecule B4 came in with a kd var/kd wt of 0.9.

B5 yielded a kd var/kd wt of 0.9.

B6: the kd var/kd wt was 0.8.

B7 had a kd var/kd wt of 1.

For B8, the kd var/kd wt amounted to 0.7.

Molecule B9 returned a kd var/kd wt of 2.3.

Turning to B10, the kd var/kd wt worked out at 1.2.

The molecule B11 showed a kd var/kd wt of 0.7.

As for B12, the kd var/kd wt is 0.8.

For B13, the kd var/kd wt worked out at 1.

In the case of B14, the kd var/kd wt was found to be 0.8.

Another assay addresses T1, human TGFβ2. Put plainly: Biacore off-rate vs wt GC1008, 50 nM.
Source text: as §1
As for B1, the kd var/kd wt was 1.3.

B15 returned a kd var/kd wt of 1.7.

B16: the kd var/kd wt is 1.7.

As for B4, the kd var/kd wt turned out to be 0.8.

B17 returned a kd var/kd wt of 1.3.

B5: the kd var/kd wt amounted to 0.8.

For B6, the kd var/kd wt stood at 0.7.

As to B18, the kd var/kd wt was 1.7.

Regarding B7, the kd var/kd wt worked out at 0.7.

On to B19, for which the kd var/kd wt was 1.9.

Molecule B20 had a kd var/kd wt of 1.3.

B9 had a kd var/kd wt of 1.5.

In turn, B10 returned a kd var/kd wt of 0.8.

B21 yielded a kd var/kd wt of 1.8.

For B22, the kd var/kd wt worked out at 1.6.

B23: the kd var/kd wt worked out at 1.9.

Take B24: the kd var/kd wt came to 1.7.

For B12, the kd var/kd wt was found to be 0.9.

Regarding B25, the kd var/kd wt came out at 1.9.

In turn, B26 showed a kd var/kd wt of 1.5.

For the molecule B27, the kd var/kd wt was found to be 1.8.

Turning to B13, the kd var/kd wt amounted to 1.2.

B28 displayed a kd var/kd wt of 1.9.

The target in a further assay is T2, human TGFβ3. Put plainly: Biacore off-rate vs wt GC1008, 50 nM.
Source text: as §1
The molecule B1 returned a kd var/kd wt of 0.8.

With B16, the kd var/kd wt is 2.

For the molecule B17, the kd var/kd wt is 2.1.

B20 showed a kd var/kd wt of 1.5.

On to B9, for which the kd var/kd wt came to 1.5.

The molecule B22 gave a kd var/kd wt of 1.8.

In the case of B24, the kd var/kd wt was 1.8.

In turn, B25 had a kd var/kd wt of 2.

Consider B26, for which the kd var/kd wt came to 1.6.

On to B13, for which the kd var/kd wt is 0.9.

Molecule B28 showed a kd var/kd wt of 2.1.

The values are drawn from patent publication US20170342144A1 (Sanofi, published 2017).
